Article PMC5556974 (Developmental cell, 2017)

Columns and labels:
[1] = target: GST-CrCEP19 (Chlamydomonas reinhardtii); assay: pull-down
[2] = target: GST-CEP19 (human) (UniProt Q96LK0); assay: pull-down
[3] = target: the molecule itself

Sequence of GST-CEP19 (human) (Q96LK0 whole entry): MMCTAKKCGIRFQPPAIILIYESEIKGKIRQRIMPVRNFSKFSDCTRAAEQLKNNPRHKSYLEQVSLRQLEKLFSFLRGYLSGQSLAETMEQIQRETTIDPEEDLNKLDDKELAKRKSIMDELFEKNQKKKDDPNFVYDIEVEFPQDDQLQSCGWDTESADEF

With “MYC-CrRabl2 (in vitro translated) (natural protein)” the fold enhancement of binding by GTP addition [1] was 5 fold.

For “MYC-RABL2B, full length (in vitro translated) (from UniProt Q9UNT1 1-228) (natural protein)”, the fold enhancement of binding by GTP addition [2] was 5 fold.

B1: untagged human RABL2B (natural protein, UniProt Q9UNT1-2 1-229, looked up)
chain: MAEDKTKPSELDQGKYDADDNVKIICLGDSAVGKSKLMERFLMDGFQPQQLSTYALTLYKHTATVDGRTILVDFWDTAGQERFQSMHASYYHKAHACIMVFDVQRKVTYRNLSTWYTELREFRPEIPCIVVANKIDADINVTQKSFNFAKKFSLPLYFVSAADGTNVVKLFNDAIRLAVSYKQNSQDFMDEIFQELENFSLEQEEEDVPDQEQSSSIETPSEEAASPHS
For B1, the “stoichiometry N” value [3] was 4.
